{"source": "patent US20250263462A1", "about": "(published 2025)", "binders": {"B1": {"name": "TRAV19*01/TRBV13-1*02 murine anti-KRAS G12V TCR (SEQ ID NOs: 145 and 146) (TCR, V domains shown)", "Valpha": "GQQVKQSSPSLTVQEGGILILNCDYENDMFDYFAWYKKYPDNSPTLLISVRSNVDKREDGRFTVFLNKSGKHFSLHITASQPEDTAVYLCAAGDSGGSNYKLTFGKGTLLTVTP", "Vbeta": "EAAVTQSPRNKVTVTGGNVTLSCRQTNSHNYMYWYRQDTGHGLRLIHYSYGAGNLQIGDVPDGYKATRTTQEDFFLLLELASPSQTSLYFCASASWGGYAEQFFGPGTRLTVL"}, "B2": {"name": "TRAV16D/DV11*03 + TRBV4*01 (TCR)", "alpha TRAV16D/DV11*03 52*01 CDR3": "CAMREDTGANTGKLTF", "Vbeta": "ETAVFQTPNYHVTQVGNEVSFNCKQTLGHDTMYWYKQDSKKLLKIMFSYNNKQLIVNETVPRRFSPQSSDKAHLNLRIKSVEPEDSAVYLCASSSRDWSAETLYFGSGTRLTVL"}, "B3": {"name": "TRAV3-3*01/TRBV4*01 murine anti-KRAS G12V TCR (SEQ ID NOs: 133 and 134) (TCR, V domains shown)", "Valpha": "GEQVEQRPPHLSVREGDSAVITCTYTDPNSYYFFWYKQEPGASLQLLMKVFSSTEINEGQGFTVLLNKKDKRLSLNLTAAHPGDSAAYFCAVSGGTNSAGNKLTFGIGTRVLVRP", "Vbeta": "ETAVFQTPNYHVTQVGNEVSFNCKQTLGHDTMYWYKQDSKKLLKIMFSYNNKQLIVNETVPRRFSPQSSDKAHLNLRIKSVEPEDSAVYLCASSRDWGPAEQFFGPGTRLTVL"}, "B4": {"name": "TRAV19*01 + TRBV4*01 (TCR, V domains shown)", "Valpha": "B1 Valpha", "Vbeta": "B3 Vbeta"}, "B5": {"name": "TRAV3-3*01 + TRBV13-1*02 (TCR, V domains shown)", "Valpha": "B3 Valpha", "Vbeta": "B1 Vbeta"}, "B6": {"name": "TRAV16D/DV11*03 + TRBV5*01 (TCR)", "alpha TRAV16D/DV11*03 52*01 CDR3": "CAMREDTGANTGKLTF", "beta TRBV5*01 2*01/2-1*01 CDR3": "CASSQDSLGRAEQFF"}, "B7": {"name": "TRAV4-4/DV10*01/BV12-2*01 murine anti-KRAS G12D TCR (SEQ ID NOs: 157 and 158) (TCR, V domains shown)", "Valpha": "GDQVEQSPSALSLHEGTDSALRCNFTTTMRSVQWFRQNSRGSLISLFYLASGTKENGRLKSAFDSKERRYSTLHIRDAQLEDSGTYFCAADSSNTGYQNFYFGKGTSLTVIP", "Vbeta": "NSGVVQSPRYIIKGKGERSILKCIPISGHLSVAWYQQTQGQELKFFIQHYDKMERDKGNLPSRFSVQQFDDYHSEMNMSALELEDSAVYFCASSLTDPLDSDYTFGSGTRLLVI"}, "B8": {"name": "TRAV12N-3*01 + TRBV5*01 (TCR)", "Valpha": "GDSVTQTEGLVTLTEGLPVMLNCTYQTIYSNPFLFWYVQHLNESPRLLLKSFTDNKRTEHQGFHATLHKSSSSFHLQKSSAQLSDSALYYCALRGNAGAKLTFGGGTRLTVRP", "beta TRBV5*01 2*01/2-1*01 CDR3": "CASSQDSLGRAEQFF"}, "B9": {"name": "TRAV12N-3*01/BV4*01 murine anti-KRAS G12D TCR (SEQ ID NOs: 11 and 12) (TCR, V domains shown)", "Valpha": "B8 Valpha", "Vbeta": "B2 Vbeta"}, "B10": {"name": "Substituted TRAV4-4/DV10*01/BV12-2*01 (CDR3alpha G112A) (SEQ ID NOs: 209 and 158) (TCR, V domains shown)", "Valpha": "B7 Valpha with G96A", "Vbeta": "B7 Vbeta"}}, "note": "Numbering of substitutions follows the chain as printed. Names may count otherwise.", "data": [{"target": "T1, KRAS G12V peptide on HLA-A*11:01 (human)", "T1 peptide": "VVGAVGVGK", "assay": "cytokine release", "values": [{"binder": "B1", "binding result": "no recognition"}]}, {"target": "T2, KRAS wild type peptide on HLA-A*11:01 (human)", "T2 peptide": "VVVGAGGVGK", "assay": "cytokine release", "values": [{"binder": "B2", "binding result": "no recognition"}, {"binder": "B3", "binding result": "no recognition"}, {"binder": "B1", "binding result": "no recognition"}, {"binder": "B4", "binding result": "no recognition"}, {"binder": "B5", "binding result": "no recognition"}, {"binder": "B6", "binding result": "no recognition"}, {"binder": "B7", "binding result": "no recognition"}, {"binder": "B8", "binding result": "no recognition"}, {"binder": "B9", "binding result": "no recognition"}]}, {"target": "T3, KRAS G12D peptide on HLA-A*11:01 (human)", "T3 peptide": "VVVGADGVGK", "assay": "cytokine release", "values": [{"binder": "B3", "binding result": "no recognition"}, {"binder": "B1", "binding result": "no recognition"}, {"binder": "B4", "binding result": "no recognition"}, {"binder": "B5", "binding result": "no recognition"}, {"binder": "B10", "binding result": "recognises"}, {"binder": "B8", "binding result": "no recognition"}, {"binder": "B9", "binding result": "recognises"}]}, {"target": "T4, KRAS wild type peptide on HLA-A*11:01 (human)", "T4 peptide": "VVGAGGVGK", "assay": "cytokine release", "values": [{"binder": "B7", "binding result": "no recognition"}, {"binder": "B9", "binding result": "no recognition"}]}, {"target": "T5, KRAS G12D peptide on HLA-A*11:01 (human)", "T5 peptide": "VVVGADGVG", "assay": "cytokine release", "values": [{"binder": "B9", "binding result": "no recognition"}]}, {"target": "T6, KRAS G12V peptide on HLA-A*11:01 (human)", "T6 peptide": "VVVGAVGVGK", "assay": "cytokine release", "values": [{"binder": "B2", "binding result": "no recognition"}, {"binder": "B3", "binding result": "recognises"}, {"binder": "B1", "binding result": "recognises"}, {"binder": "B4", "binding result": "no recognition"}, {"binder": "B5", "binding result": "no recognition"}, {"binder": "B6", "binding result": "no recognition"}, {"binder": "B7", "binding result": "no recognition"}, {"binder": "B8", "binding result": "no recognition"}, {"binder": "B9", "binding result": "no recognition"}]}, {"target": "T7, KRAS G12D peptide on HLA-A*11:01 (human)", "T7 peptide": "VVGADGVGK", "assay": "cytokine release", "values": [{"binder": "B3", "binding result": "no recognition"}, {"binder": "B1", "binding result": "no recognition"}, {"binder": "B7", "binding result": "no recognition"}, {"binder": "B9", "binding result": "no recognition"}]}]}
